# Target: TRAF6 (human) (UniProt Q9Y4K3)
# Experiment: cell-based or functional assay
# Chain of UniProt Q9Y4K3 (Q9Y4K3 whole entry): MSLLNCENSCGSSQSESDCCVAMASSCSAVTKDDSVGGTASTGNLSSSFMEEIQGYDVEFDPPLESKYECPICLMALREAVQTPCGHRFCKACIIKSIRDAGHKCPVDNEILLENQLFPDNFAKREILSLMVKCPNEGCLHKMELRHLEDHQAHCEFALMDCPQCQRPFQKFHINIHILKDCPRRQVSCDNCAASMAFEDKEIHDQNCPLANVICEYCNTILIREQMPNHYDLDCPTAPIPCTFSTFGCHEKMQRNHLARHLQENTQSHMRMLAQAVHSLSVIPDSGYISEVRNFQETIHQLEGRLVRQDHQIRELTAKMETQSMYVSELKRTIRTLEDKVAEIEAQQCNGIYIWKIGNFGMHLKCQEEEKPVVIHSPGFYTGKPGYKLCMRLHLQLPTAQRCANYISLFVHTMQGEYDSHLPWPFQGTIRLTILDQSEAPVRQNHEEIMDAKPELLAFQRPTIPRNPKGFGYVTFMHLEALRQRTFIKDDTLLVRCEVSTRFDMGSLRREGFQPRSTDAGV
row,"activity of MALT1 detected by biotinylated MALT1 activity-based probe (bio-MALT1-ABP) pulldown, ratio of active to total MALT1, resting Jurkat T cells [fold]",Substance
1,50,human MALT1A E316A/E806A (from UniProt Q9UDY8 1-824) (enzyme)
2,5,human MALT1B E795A (from UniProt Q9UDY8 2-824) (enzyme)

# — US20240238419A1
